# Assay results reported in patent US20090186415A1, “METHOD FOR PRODUCTION OF CYTOCHROME P450 WITH N-TERMINAL TRUNCATED P450 REDUCTASE” (priority 2006, published 2009).
# T1: human CYP1B1 (Homo sapiens, UniProt Q16678)
# T1 construct: made in house; host or cells: Saccharomyces cerevisiae JL20 / W303B and derived strains; microsomes
# T1 sequence (Q16678 with tags, fused parts or gaps): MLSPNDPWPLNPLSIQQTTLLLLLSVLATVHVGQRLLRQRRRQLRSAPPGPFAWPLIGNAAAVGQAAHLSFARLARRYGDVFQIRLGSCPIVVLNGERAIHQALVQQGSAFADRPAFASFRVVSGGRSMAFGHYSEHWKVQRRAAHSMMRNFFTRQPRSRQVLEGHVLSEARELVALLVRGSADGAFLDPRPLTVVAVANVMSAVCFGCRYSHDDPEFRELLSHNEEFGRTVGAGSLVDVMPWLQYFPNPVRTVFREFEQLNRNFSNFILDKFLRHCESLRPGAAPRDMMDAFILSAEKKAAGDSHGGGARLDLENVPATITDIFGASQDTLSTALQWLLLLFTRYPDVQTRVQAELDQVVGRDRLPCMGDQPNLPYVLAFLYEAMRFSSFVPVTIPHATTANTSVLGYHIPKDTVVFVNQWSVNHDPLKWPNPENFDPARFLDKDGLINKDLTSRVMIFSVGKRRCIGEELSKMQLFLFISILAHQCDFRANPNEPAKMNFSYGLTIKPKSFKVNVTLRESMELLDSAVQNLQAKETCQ
# Legend:
# human CYP1B1 = biological target: T1, human CYP1B1; assay: Determination of P450 amounts via CO-difference spectra (CYP1B1 in yeast microsomes); conditions: strains JL20 and W303B with only endogenous yeast P450 reductase, average of 3 observations
# Description: Determination of P450 amounts via CO-difference spectra: Difference spectra of microsomal preparations were measured in a spectrophotometer (Lambda 16, Perkin Elmer) using plastic disposable cuvettes. 850 μl of a solution containing 100 mM potassium phosphate and 20% glycerol (pH7.5) was added to the cuvette, and left for one minute. Then a ‘few grains’ of sodium hydrosulfite was added, mixed gently to prevent any bubble forming in the cuvette and left for another minute. 150 μl of mirosomes were added into the cuvette and the whole suspension was mixed gently. Two cuvettes (one containing sodium hydrosulphite without microsome and the other with microsome) were prepared and a baseline of light absorption of the buffer and microsome mixture was recorded in the dual-beam spectrophotometer from 400 nm to 500 nm. Carbon monoxide was bubbled slowly into one sample cuvette for about one minute, 1 bubble/second. Light absorption was recorded again from 400 nm to 500 nm. The concentration of cytochrome P450 in the cuvette was calculated from the absorption change at 450 nm relative to the absorbance change at 490 nm, using the formula below: […]
# [1] = tested on: human NADPH P450 reductase; assay: MTT-based cytochrome P450 reductase assay, hRD variants in yeast microsomes and cytosolic fractions; assay type: biochemical; conditions: for microsome bound reductase activity: microsomes; for microsome bound reductase activity / cytosolic reductase activity: LEU2 locus of W303B; for cytosolic reductase activity: soluble cytosolic fraction
# Description: Microsomes from the different yeast strains were prepared as described in Example 1.15. About 100 μg of microsomes, as measured by the Bio-Rad Bradford assay, were used and the increase in MTT reductase activity was followed over a time period of 400 seconds.
# The different yeast strains were grown up in YPGE medium as described in Example 1.15. The cells were harvested and centrifuged to a pellet. 10% of cell pellets were re-suspended in 1 ml of buffer B (10 mM Tris-Cl pH7.5, 2 M Sorbitol, 0.1 mM EDTA pH8.0, 1 mM Pefabloc, 0.1 mM DTT) and re-suspended cells were treated with lyticase (3-5 units/O.D. of cells; 2200 units/mg; Sigma) for about an hour. The yeast cell wall was enzymatically removed using lyticase, the pellets were centrifuged and washed twice with ice cold PBS, finally re-suspended in 1 ml PBS. About 0.5 ml of glass beads were added to the suspension and the cells were vortexed three times with a 5 min interval on ice after each vortexing. The cells lysates were directly used for the MTT-based reductase assay. Equal amount of cells lysates (100 μg, as measured by the Bio-Rad Bradford assay) were used and the increase in MTT reductase activity was followed, as above, over a time period of 400 seconds.
# The enzyme NADPH-cytochrome P450 reductase mediates the transfer of electrons from NADPH to cytochrome P450, other microsomal proteins and cytochrome c. It also catalyzes the reduction of many drugs and other compounds such as potassium ferricyanide, 2,6-dichloroindopheonl, 1,1-diphenyl-2-picrylhydrazyl (DPPH), and mitomycin c. Tetrazolium salts are used extensively in cell proliferation and cytotoxicity assays, enzyme assays, histochemical procedures and bacteriological screening. […] The compound 3-(4,5-dimethylthiazol-2-yl)-2,5-diphenyltetrazolium bromide (MTT) is a monotetrazolium salt. The reduction of MTT is one of the most frequently used methods for measuring cell proliferation and cytotoxiciy. Reduction of MTT by P450 reductase has been assessed as a method for monitoring yeast produced recombinant P450 reductase activity and the protocol was developed on the procedure published by Yim S-K, et al (Yim S-K., Y. C.-H. Ahn T., Hung H—C and Pan J-G. A continuous Spectrophotometric assay for NADPH-cytochrome P450 reductase activity using 3-(4,5 Dimethylthiazol-2-yl)-2,5-diphenyltetrazolium Bromide. Journal of Biology and Molecular Biology 38: 366-369, 2005). The principal advantage of this substance is that the reduction of MTT can be assayed directly in the reaction medium by a continuous spectrophotometirc method. The electrons released from NADPH by P450 reductase are transferred to MTT, and then the amounts of reduced MTT is assessed spectrophotometrically by measuring the increase in A610 values that is due to the formation of blue formazan. The extinction coefficient of MTT is 11.3 mM^−1 cm^−1. This method offers the advantages of short analysis time with the use of a relatively cheap commercial substrate. The classical assay uses recombinant cytochrome c as a substrate.
# Disposable cuvettes were used for this experiment. 850 μl of potassium phosphate buffer was added to a cuvette. […] The cuvette was quickly placed into the spectrophotometer together with the blank cuvette and its contents (that contained all components as in the other test cuvette but not the microsomes or cell supernatant) and the increase in the values at 610 nm was measured for a time period of 400 seconds. […]
Molecule,Expression of CYP1B1 (amounts of P450 produced) from GAL promoter variants (human CYP1B1),Expression of CYP1B1 (amounts of P450 produced) from GAL promoter variants (human CYP1B1; listed as 675 bp GAL1 promoter),microsome bound reductase activity [1],cytosolic reductase activity [1],"P450 reductase activity (MTT reduction) ([1]; microsomal and soluble (cytosolic) fractions, hRD variants in W303B)"
"675 bp GAL1p: truncated 675 bp yeast GAL1 promoter (SEQ ID No. 2) (nucleic acid, /note = Positive strand of the 675 bp GAL1 promoter) DNA: CTTGAATTTTCAAAAATTCTTACTTTTTTTTTGGATGGACGCAAAGAAGTTTAATAATCATATTACATGGCATTACCACCATATACATATCCATATACATATCCATATCTAATCTTACTTATATGTTGTGGAAATGTAAAGAGCCCCATTATCTTAGCCTAAAAAAACCTTCTCTTTGGAACTTTCAGTAATACGCTTAACTGCTCATTGCTATATTGAAGTACGGATTAGAAGCCGCCGAGCGGGTGACAGCCCTCCGAAGGAAGACTCTCCTCCGTGCGTCCTCGTCTTCACCGGTCGCGTTCCTGAAACGCAGATGTGCCTCGCGCCGCACTGCTCCGAACAATAAAGATTCTACAATACTAGCTTTTATGGTTATGAAGAGGAAAAATTGGCAGTAACCTGGCCCCACAAACCTTCAAATGAACGAATCAAATTAACAACCATAGGATGATAATGCGATTAGTTTTTTAGCCTTATTTCTGGGGTAATTAATCAGCGAAGCGATGATTTTTGATCTATTAACAGATATATAAATGCAAAAACTGCATAACCACTTTAACTAATACTTTCAACATTTTCGGTTTGTATTACTTCTTATTCAAATGTAATAAAAGTATCAACAAAAAATTGTTAATATACCTCTATACTTTAACGTCAAGGAGAAAAAACCCC",the best,the best expression,,,
"ΔN24hRD: human P450 reductase variant lacking the charged N-terminal 24 amino acids (SEQ ID NO: 26) (protein, /note = delta-N24hRD human P450 reductase) MTDMILFSLIVGLLTYWFLFRKKKEEVPEFTKIQTLTSSVRESSFVEKMKKTGRNIIVFYGSQTGTAEEFANRLSKDAHRYGMRGMSADPEEYDLADLSSLPEIDNALVVFCMATYGEGDPTDNAQDFYDWLQETDVDLSGVKFAVFGLGNKTYEHFNAMGKYVDKRLEQLGAQRIFELGLGDDDGNLEEDFITWREQFWPAVCEHFGVEATGEESSIRQYELVVHTDIDAAKVYMGEMGRLKSYENQKPPFDAKNPFLAAVTTNRKLNQGTERHLMHLELDISDSKIRYESGDHVAVYPANDSALVNQLGKILGADLDVVMSLNNLDEESNKKHPFPCPTSYRTALTYYLDITNPPRTNVLYELAQYASEPSEQELLRKMASSSGEGKELYLSWVVEARRHILAILQDCPSLRPPIDHLCELLPRLQARYYSIASSSKVHPNSVHICAVVVEYETKAGRINKGVATNWLRAKEPVGENGGRALVPMFVRKSQLRLPFKATTPVIMVGPGTGWHPFIGFIQERAWLRQQGKEVGETLLYYGCRRSDEDYLYREELAQFHRDGALTQLNVAFSREQSHKVYVQHLLKQDREHLWKLIEGGAHIYVCGDARNMARDVQNTFYDIVAELGAMEHAQAVDYIKKLMTKGRYSLDVWS",,,minimal,most of the activity of ΔN24hRD exists in the soluble cytosolic part of the cell,
"ΔN24hRD-cmyc: human P450 reductase lacking N-terminal 24 amino acids, with C-terminal c-myc epitope tag (SEQ ID NO: 27) (protein, C-terminal c-myc tag; /note = delta-N24hRD-cmyc tag human P450 reductase) MTDMILFSLIVGLLTYWFLFRKKKEEVPEFTKIQTLTSSVRESSFVEKMKKTGRNIIVFYGSQTGTAEEFANRLSKDAHRYGMRGMSADPEEYDLADLSSLPEIDNALVVFCMATYGEGDPTDNAQDFYDWLQETDVDLSGVKFAVFGLGNKTYEHFNAMGKYVDKRLEQLGAQRIFELGLGDDDGNLEEDFITWREQFWPAVCEHFGVEATGEESSIRQYELVVHTDIDAAKVYMGEMGRLKSYENQKPPFDAKNPFLAAVTTNRKLNQGTERHLMHLELDISDSKIRYESGDHVAVYPANDSALVNQLGKILGADLDVVMSLNNLDEESNKKHPFPCPTSYRTALTYYLDITNPPRTNVLYELAQYASEPSEQELLRKMASSSGEGKELYLSWVVEARRHILAILQDCPSLRPPIDHLCELLPRLQARYYSIASSSKVHPNSVHICAVVVEYETKAGRINKGVATNWLRAKEPVGENGGRALVPMFVRKSQLRLPFKATTPVIMVGPGTGWHPFIGFIQERAWLRQQGKEVGETLLYYGCRRSDEDYLYREELAQFHRDGALTQLNVAFSREQSHKVYVQHLLKQDREHLWKLIEGGAHIYVCGDARNMARDVQNTFYDIVAELGAMEHAQAVDYIKKLMTKGRYSLDVWSSSEQKLISEEDLNGSRL",,,superior in its reductase activity than the wild type full-length protein,also higher,much more potent in reductase activity than ΔN24hRD
